The supplement of paper PMC9112550, “Optimization of the antimicrobial peptide Bac7 by deep mutational scanning” (BMC Biology, 2022)

Test system: Escherichia coli TOP10
Assay: shrunken log2 fold change of peptide-encoding DNA abundance (4.5 h post-induction vs induction); higher = less antimicrobial activity (less host growth inhibition)
Details: time post-induction: 4.5 h; library: site-saturation at positions 5, 18, 19, 20
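Also: peptides expressed intracellularly from a pBAD plasmid library in pooled LB shake-flask culture, induced with 0.3% L-arabinose, DNA abundance read by NGS, three biological replicates, DESeq2 with apeglm shrinkage.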

Sequence	shrunken log2 fold change
RRIRPRPPRLPRPRPRPEIKPRP	0.0782
RRIRTRPPRLPRPRPRPFHCPRP	-0.179
RRIRIRPPRLPRPRPRPWNRPRP	0.000744
RRIRFRPPRLPRPRPRPYVQPRP	-0.0133
RRIRKRPPRLPRPRPRPQWHPRP	0.104
RRIRMRPPRLPRPRPRPMLKPRP	0.197
RRIRVRPPRLPRPRPRPQHTPRP	-0.0855
RRIRLRPPRLPRPRPRPLNRPRP	-0.317
RRIRMRPPRLPRPRPRPMPAPRP	1.07
RRIRTRPPRLPRPRPRPANMPRP	-0.291
RRIRARPPRLPRPRPRPPWEPRP	0.558
RRIRNRPPRLPRPRPRPKNFPRP	0.0662
RRIRMRPPRLPRPRPRPDMWPRP	0.805
RRIRPRPPRLPRPRPRPIVCPRP	-0.228
RRIRQRPPRLPRPRPRPMDVPRP	-0.0102
RRIRLRPPRLPRPRPRPSVSPRP	-0.0466
RRIRIRPPRLPRPRPRPGKVPRP	-0.621
RRIRKRPPRLPRPRPRPMTWPRP	-0.00388
RRIRSRPPRLPRPRPRPWCNPRP	-0.116
RRIRSRPPRLPRPRPRPRRWPRP	0.556
RRIRGRPPRLPRPRPRPCTIPRP	0.166
RRIRIRPPRLPRPRPRPRYMPRP	-0.114
RRIRGRPPRLPRPRPRPEIEPRP	1.37
RRIRARPPRLPRPRPRPWVRPRP	-0.323
RRIRQRPPRLPRPRPRPHDIPRP	0.0769

Sequence	shrunken log2 fold change
RRIRRRPPRLPRPRPRPLLKPRP	0.415
RRIRSRPPRLPRPRPRPWDMPRP	-0.254
RRIRCRPPRLPRPRPRPMEYPRP	-0.17
RRIRFRPPRLPRPRPRPLMGPRP	-0.18
RRIRNRPPRLPRPRPRPGDAPRP	0.102
RRIRKRPPRLPRPRPRPLGHPRP	0.166
RRIRHRPPRLPRPRPRPYYSPRP	-0.191
RRIRRRPPRLPRPRPRPCKDPRP	-0.0845
RRIRGRPPRLPRPRPRPCPTPRP	0.0246
RRIRIRPPRLPRPRPRPYWYPRP	-0.0124
RRIRTRPPRLPRPRPRPKHDPRP	-0.099
RRIRIRPPRLPRPRPRPQEAPRP	0.0332
RRIRGRPPRLPRPRPRPVESPRP	0.00705
RRIRVRPPRLPRPRPRPHTLPRP	-0.571
RRIRCRPPRLPRPRPRPTQVPRP	0.0177
RRIRKRPPRLPRPRPRPHQSPRP	0.226
RRIRQRPPRLPRPRPRPEGWPRP	0.856
RRIRWRPPRLPRPRPRPIWLPRP	0.211
RRIRCRPPRLPRPRPRPGQYPRP	-0.479
RRIRQRPPRLPRPRPRPVQQPRP	0.142
RRIRLRPPRLPRPRPRPRMIPRP	0.119
RRIRKRPPRLPRPRPRPVEYPRP	0.0119
RRIRVRPPRLPRPRPRPVMEPRP	-0.186
RRIRKRPPRLPRPRPRPTVMPRP	0.247
RRIRERPPRLPRPRPRPEGYPRP	-0.00062

Sequence	shrunken log2 fold change
RRIRHRPPRLPRPRPRPTGHPRP	0.173
RRIRDRPPRLPRPRPRPFYTPRP	-0.687
RRIRGRPPRLPRPRPRPIWVPRP	-0.0275
RRIRHRPPRLPRPRPRPNNKPRP	-0.75
RRIRRRPPRLPRPRPRPHCWPRP	0.11
RRIRSRPPRLPRPRPRPKYAPRP	-0.323
RRIRTRPPRLPRPRPRPILMPRP	-0.306
RRIRTRPPRLPRPRPRPCTSPRP	-0.137
RRIRDRPPRLPRPRPRPARGPRP	0.793
RRIRTRPPRLPRPRPRPIFFPRP	0.0107
RRIRIRPPRLPRPRPRPNSSPRP	-0.369
RRIRDRPPRLPRPRPRPMSLPRP	-0.558
RRIRCRPPRLPRPRPRPVQTPRP	-0.0555
RRIRVRPPRLPRPRPRPKYDPRP	-0.269
RRIRIRPPRLPRPRPRPNRHPRP	-0.0899
RRIRLRPPRLPRPRPRPALGPRP	0.935
RRIRKRPPRLPRPRPRPHEMPRP	0.0317
RRIRDRPPRLPRPRPRPTALPRP	0.573
RRIRRRPPRLPRPRPRPLGYPRP	0.26
RRIRYRPPRLPRPRPRPVRGPRP	0.393
RRIRCRPPRLPRPRPRPVCLPRP	-0.168
RRIRWRPPRLPRPRPRPWVAPRP	0.191
RRIRQRPPRLPRPRPRPNVQPRP	0.031
RRIRSRPPRLPRPRPRPEIIPRP	-0.0448
RRIRIRPPRLPRPRPRPLISPRP	-0.127

Sequence	shrunken log2 fold change
RRIRGRPPRLPRPRPRPTWCPRP	0.521
RRIRGRPPRLPRPRPRPISNPRP	0.0729
RRIRVRPPRLPRPRPRPDEMPRP	0.0261
RRIRQRPPRLPRPRPRPRDWPRP	1.63
RRIRIRPPRLPRPRPRPPNDPRP	-0.55
RRIRVRPPRLPRPRPRPTTPPRP	0.347
RRIRLRPPRLPRPRPRPEFHPRP	-0.113
RRIRTRPPRLPRPRPRPKDAPRP	0.103
RRIRRRPPRLPRPRPRPSAFPRP	1.27
RRIRERPPRLPRPRPRPPNCPRP	-0.019
RRIRRRPPRLPRPRPRPSFSPRP	-0.411
RRIRVRPPRLPRPRPRPGWGPRP	0.621
RRIRGRPPRLPRPRPRPQPMPRP	0.412
RRIRRRPPRLPRPRPRPKKTPRP	-0.0163
RRIRARPPRLPRPRPRPHCCPRP	0.134
RRIRYRPPRLPRPRPRPNYSPRP	-1.39
RRIRMRPPRLPRPRPRPGKLPRP	0.515
RRIRYRPPRLPRPRPRPVDQPRP	-0.611
RRIRCRPPRLPRPRPRPHKFPRP	-0.742
RRIRFRPPRLPRPRPRPPFHPRP	-0.231
RRIRGRPPRLPRPRPRPNQRPRP	0.27
RRIRLRPPRLPRPRPRPSKIPRP	-0.349
RRIRERPPRLPRPRPRPRRRPRP	0.261
RRIRVRPPRLPRPRPRPDRKPRP	0.0279
RRIRCRPPRLPRPRPRPTHNPRP	0.124

Sequence	shrunken log2 fold change
RRIRNRPPRLPRPRPRPICVPRP	0.111
RRIRCRPPRLPRPRPRPYGRPRP	-0.114
RRIRVRPPRLPRPRPRPKYKPRP	-0.574
RRIRERPPRLPRPRPRPYNRPRP	-0.112
RRIRQRPPRLPRPRPRPFQEPRP	-0.0113
RRIRLRPPRLPRPRPRPCYWPRP	-0.317
RRIRIRPPRLPRPRPRPQVRPRP	-0.223
RRIRYRPPRLPRPRPRPNVPPRP	-3.01
RRIRYRPPRLPRPRPRPSVFPRP	-0.219
RRIRHRPPRLPRPRPRPFHPPRP	-0.274
RRIRFRPPRLPRPRPRPNIAPRP	-0.255
RRIRPRPPRLPRPRPRPPDPPRP	0.742
RRIRSRPPRLPRPRPRPHFRPRP	-0.197
RRIRCRPPRLPRPRPRPGQVPRP	0.0846
RRIRPRPPRLPRPRPRPVASPRP	0.00755
RRIRTRPPRLPRPRPRPWNYPRP	-0.567
RRIRYRPPRLPRPRPRPMSIPRP	-0.563
RRIRHRPPRLPRPRPRPMLTPRP	0.0372
RRIRSRPPRLPRPRPRPRINPRP	-0.301
RRIRRRPPRLPRPRPRPQGIPRP	-0.00228
RRIRPRPPRLPRPRPRPSLTPRP	-0.22
RRIRARPPRLPRPRPRPIMFPRP	-0.0901
RRIRPRPPRLPRPRPRPNPNPRP	0.367
RRIRWRPPRLPRPRPRPLAEPRP	1.13
RRIRHRPPRLPRPRPRPITHPRP	-0.23

Sequence	shrunken log2 fold change
RRIRLRPPRLPRPRPRPMQMPRP	-0.11
RRIRWRPPRLPRPRPRPPMKPRP	0.234
RRIRKRPPRLPRPRPRPLTIPRP	0.146
RRIRNRPPRLPRPRPRPDKYPRP	-0.665
RRIRRRPPRLPRPRPRPMLEPRP	0.0718
RRIRQRPPRLPRPRPRPVGMPRP	0.18
RRIRPRPPRLPRPRPRPFVRPRP	-0.117
RRIRSRPPRLPRPRPRPFNLPRP	-0.218
RRIRARPPRLPRPRPRPNLNPRP	-0.0397
RRIRVRPPRLPRPRPRPCHNPRP	-0.362
RRIRIRPPRLPRPRPRPYWSPRP	0.0464
RRIRARPPRLPRPRPRPQEYPRP	0.0643
RRIRGRPPRLPRPRPRPRMDPRP	0.59
RRIRCRPPRLPRPRPRPTSWPRP	0.0567
RRIRKRPPRLPRPRPRPNPGPRP	0.155
RRIRIRPPRLPRPRPRPCWVPRP	-0.451
RRIRFRPPRLPRPRPRPPPTPRP	1.39
RRIRLRPPRLPRPRPRPQKGPRP	-0.183
RRIRYRPPRLPRPRPRPSMYPRP	-0.418
RRIRCRPPRLPRPRPRPPFAPRP	0.455
RRIRGRPPRLPRPRPRPTAYPRP	0.656
RRIRERPPRLPRPRPRPSHVPRP	-2.72
RRIRERPPRLPRPRPRPPHNPRP	0.637
RRIRWRPPRLPRPRPRPQPIPRP	0.813
RRIRKRPPRLPRPRPRPQFWPRP	0.248
